Tests used:
[1] = molecular target: T1, Recombinant Rat B7-H3 Fc Chimera Protein (R&D Systems Cat #10610-B3-050) (rat, UniProt Q7TPB4 29-244); test: BLI (Octet), bispecific antibody captured on biosensor, soluble antigen; via kinetics
T1 construct: Bought Fc chimera; not shown: Fc part of the chimera
T1 sequence (looked up): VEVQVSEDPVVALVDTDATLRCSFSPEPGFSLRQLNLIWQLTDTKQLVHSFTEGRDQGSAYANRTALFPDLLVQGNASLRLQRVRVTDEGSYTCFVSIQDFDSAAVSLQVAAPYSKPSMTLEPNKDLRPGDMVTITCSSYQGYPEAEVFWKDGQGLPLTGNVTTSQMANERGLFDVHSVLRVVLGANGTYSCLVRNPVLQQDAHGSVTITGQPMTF
Protocol: (§1) Soluble antigens (e.g., B7H3 or GD2) were then added to the system and binding was measured.

[2] = molecular target: T2, Cynomolgus B7H3, His-tagged protein (AcroBiosystems Cat #B73-C52Ha) (cynomolgus); test: as above
T2 construct: Bought soluble protein; also called Cyno B7H3
Protocol: as §1

[3] = molecular target: T1, Recombinant Rat B7-H3 Fc Chimera …; test: BLI (Octet), bispecific antibody captured on biosensor, soluble antigen
Protocol: as §1

[4] = molecular target: T2, Cynomolgus B7H3, His-tagged protein …; test: as above
Protocol: as §1

- Kd [1]: 6.88 nM
- Kd [2]: 1.16 nM
- koff [3]: 0.00137 s⁻¹
- kon [3]: 199000 M⁻¹ s⁻¹
- koff [4]: 0.000239 s⁻¹
- kon [4]: 206000 M⁻¹ s⁻¹
B1: Exemplary Bispecific Antibody 1 (B7H3 x GD2) (bispecific antibody)
chain 1: not shown
chain 2: EVQLVESGGGLVQPGGSLRLSCAASGFTFSTYYIHWVRQAPGKGLEWVAWIHPSGKYTYYADSVKGRFTISADTSKNTAYLQMNSLRAEDTAVYYCARHYQVGAMDYWGQGTLVTVSSAQPREPQVYTLPPCRDWLTKNQVSLTCLVKGFYPSDIAVEWESNGQPENNYKTTPPVLDSDGSFFLYSKLTVDKSRWQQGNVFSCSVMHEALHNHYTQKSLSLSPGK
chain 3: not shown
chain 4: EVQLVESGGGLVQPGGSLRLSCAASGSSFTGYNMNWVRQAPGKGLEWVAAIDPYYGGTYYADSVKGRFTISADTSKNTAYLQMNSLRAEDTAVYYCASGMEYWGQGTLVTVSSASTKGPSVFPLAPSSKSTSGGTAALGCLVKDYFPEPVTVSWNSGALTSGVHTFPAVLQSSGLYSLSSVVTVPSSSLGTQTYICNVNHKPSNTKVDKKVEPKSC
notes: B7H3 arm on chains 1 and 2, GD2 arm on chains 3 and 4; also called Ex. bsAb; 1×1 bispecific antibody
